Results on 1 substance are retold here after article PMC4355285.

Where two headings read alike, the source gives them in different places.

Assay [1] addresses human CCL18 (human) (UniProt P55774). Briefly: SAXS.
The target is the same in assay [2]. Briefly: SAXS. This is another data set of the same source.

In the assay with human CCL18 (human) [1], “human CCL18 (from UniProt P55774 21-89) (natural protein)” returned a percent of the population as dimer of 32%, a percent of the population as monomer of 65% and a percent of the population as tetramer of 3%. In addition, in the assay with human CCL18 (human) [2], the percent of the population as dimer was found to be 28%, the percent of the population as hexamer worked out at 24% and the percent of the population as monomer was 48%.
